Reference: article PMC11293645, “The two-component system TtrRS boosts Vibrio parahaemolyticus colonization by exploiting sulfur compounds in host gut” (PLOS Pathogens, 2024)

Each compound was assayed against T1, TtrBCA (Vibrio parahaemolyticus, UniProt Q87N61) (assay: HPLC of cultures, wild type vs deletion and complemented strains). Conditions: M9 medium, 10 mM sodium tetrathionate, micro-aerobic, 37 °C; whole-cell cultures; reduction to thiosulfate.
T1 construct: gene VP2014; native complex in V. parahaemolyticus cells; wild type, ttrA deletion and pBAD24-complemented strains; with Tetrathionate reductase subunit B; Tetrathionate reductase subunit C
Assay type: cell-based

T1 sequence (Q87N62 entry or part of it): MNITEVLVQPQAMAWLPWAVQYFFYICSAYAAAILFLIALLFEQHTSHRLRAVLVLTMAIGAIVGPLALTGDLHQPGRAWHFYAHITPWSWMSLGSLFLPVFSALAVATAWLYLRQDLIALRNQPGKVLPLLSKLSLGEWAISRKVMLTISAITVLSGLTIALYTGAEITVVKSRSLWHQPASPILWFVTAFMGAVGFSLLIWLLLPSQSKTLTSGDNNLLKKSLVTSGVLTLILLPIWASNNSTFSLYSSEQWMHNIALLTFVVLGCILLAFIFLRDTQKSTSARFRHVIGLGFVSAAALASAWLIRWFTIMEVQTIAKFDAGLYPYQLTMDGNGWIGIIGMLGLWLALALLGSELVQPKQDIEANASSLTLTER
T1 sequence (Q87N63 entry or part of it, further chain): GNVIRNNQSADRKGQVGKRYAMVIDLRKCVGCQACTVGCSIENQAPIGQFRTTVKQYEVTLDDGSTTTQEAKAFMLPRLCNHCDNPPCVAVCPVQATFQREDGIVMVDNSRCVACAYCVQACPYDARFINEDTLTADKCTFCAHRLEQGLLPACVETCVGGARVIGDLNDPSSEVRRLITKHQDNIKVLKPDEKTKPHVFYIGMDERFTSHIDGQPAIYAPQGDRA
T1 sequence (Q87N61 entry or part of it): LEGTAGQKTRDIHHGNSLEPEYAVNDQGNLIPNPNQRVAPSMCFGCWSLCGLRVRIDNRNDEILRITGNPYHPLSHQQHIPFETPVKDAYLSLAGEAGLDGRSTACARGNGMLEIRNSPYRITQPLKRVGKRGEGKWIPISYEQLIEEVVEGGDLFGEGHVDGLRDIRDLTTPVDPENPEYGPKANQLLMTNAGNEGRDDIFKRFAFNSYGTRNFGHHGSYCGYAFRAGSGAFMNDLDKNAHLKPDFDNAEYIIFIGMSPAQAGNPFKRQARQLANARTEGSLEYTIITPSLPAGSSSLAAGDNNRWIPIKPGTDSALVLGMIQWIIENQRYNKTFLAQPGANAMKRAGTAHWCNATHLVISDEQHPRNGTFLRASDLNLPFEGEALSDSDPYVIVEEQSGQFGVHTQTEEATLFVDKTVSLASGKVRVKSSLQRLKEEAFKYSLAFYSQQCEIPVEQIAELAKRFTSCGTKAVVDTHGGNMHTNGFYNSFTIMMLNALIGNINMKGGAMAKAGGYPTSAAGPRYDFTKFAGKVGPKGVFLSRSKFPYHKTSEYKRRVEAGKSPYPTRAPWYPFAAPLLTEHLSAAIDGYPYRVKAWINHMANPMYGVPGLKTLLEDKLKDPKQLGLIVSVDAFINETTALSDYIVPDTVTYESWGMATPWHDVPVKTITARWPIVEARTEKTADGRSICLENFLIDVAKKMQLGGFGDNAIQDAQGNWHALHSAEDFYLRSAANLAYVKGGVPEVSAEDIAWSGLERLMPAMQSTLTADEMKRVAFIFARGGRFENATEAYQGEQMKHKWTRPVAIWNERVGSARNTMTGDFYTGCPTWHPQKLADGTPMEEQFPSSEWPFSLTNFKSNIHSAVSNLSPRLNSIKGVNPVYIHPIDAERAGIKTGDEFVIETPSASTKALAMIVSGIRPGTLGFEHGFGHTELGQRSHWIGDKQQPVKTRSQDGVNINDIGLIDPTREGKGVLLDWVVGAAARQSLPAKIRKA

Q: How did the “HPLC of cultures, wild type vs deletion and complemented strains” value turn out when `O=S(=O)(O)SSS(=O)(=O)O` [tetrathionate] was run?
A: confirming that ttrBCA is essential for tetrathionate reduction

Each compound was assayed against T2, TtrR (09830, response regulator) (UniProt Q87N66) (assay: EMSA). Conditions: not given.
T2 sequence: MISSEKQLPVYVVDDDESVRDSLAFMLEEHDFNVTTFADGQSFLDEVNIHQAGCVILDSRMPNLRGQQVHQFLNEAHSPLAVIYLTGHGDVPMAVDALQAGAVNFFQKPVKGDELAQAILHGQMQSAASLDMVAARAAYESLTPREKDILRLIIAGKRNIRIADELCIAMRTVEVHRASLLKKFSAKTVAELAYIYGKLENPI

Q: How did the binding turn out when “GCTGACTCACTTTAATTGTTATTAATATCTCCAAGTGTCTACTGTGATAGTGACTTGGGTGCTGTATTGTCGGCTTTGTCAATAACTAAAGGTATTGTGGATTTCCACATATTTAGAGGATGTGAAGAGCTGCTAAATGGCAGCTCTTCAGGTTTGGTTGTCTACTAAGCTTTGCGGATTTTGGCTGGTAATGATTGGCGAGCAGCGGCTCCTACCACCCAATCTAACAACACGCCTTTCCCTTCTCGG (double strand) [P09855 (PtsdB, tsdBA promoter)]” was run?
A: binds

Q: For “GCTGACTCACTTTAATTGTTATTAATATCTCCAAGTGTCTACTGTGATAGTGACTTGGGTGCTGTATTGTCGGCTTTGTCAATAACTAAAGGTATTATATTTAGAGGATGTGAAGAGCTGCTAAATGGCAGCTCTTCAGGTTTGGTTGTCTACTAAGCTTTGCGGATTTTGGCTGGTAATGATTGGCGAGCAGCGGCTCCTACCACCCAATCTAACAACACGCCTTTCCCTTCTCGG (double strand) [PtsdB-Δbox]”, which binding is on record?
A: no binding

Q: Which binding does the source give for “CGCCCTGAGCTAAAGATGCAAAGACAACCAAGCACAGAATCCAAAACTGAAGCAACCGTGGCGTTTTGTTCATGATGAGTCGAATCGTTCCTTCGAAAATAATGAAGCAAGAATAACAGCTACCTTCCGTAAACCACATTTGTTTTAGATCAACTTTGATCTGGGTATTATATCGACGTCGCAGCGCATTTCTCACAATGGAATCAGTCAGTTCAAATTCAACTAACAGCAGGTGAGTT (double strand) [PttrB-Δbox]” here?
A: no binding

Q: “CAATACCTGCAATGGGGACCAACGCGGCACCCGCTGTAATGGCGCTAAGAAAGCGACGTTTGGTGGAATCCATAACTCACCTGCTGTTAGTTGAATTTGAACTGACTGATTCCATTGTGAGAAATGCGCTGCGACGTCGATATAGTGGATTTCCACATACCCAGATCAAAGTTGATCTAAAACAAATGTGGTTTACGGAAGGTAGCTGTTATTCTTGCTTCATTATTTTCGAAGGAACGATTCGACTCATC (double strand) [PttrS (ttrRS promoter)]” was tested. Which binding did it give?
A: binds

Q: For “CGCCCTGAGCTAAAGATGCAAAGACAACCAAGCACAGAATCCAAAACTGAAGCAACCGTGGCGTTTTGTTCATGATGAGTCGAATCGTTCCTTCGAAAATAATGAAGCAAGAATAACAGCTACCTTCCGTAAACCACATTTGTTTTAGATCAACTTTGATCTGGGTATGTGGAAATCCACTATATCGACGTCGCAGCGCATTTCTCACAATGGAATCAGTCAGTTCAAATTCAACTAACAGCAGGTGAGTT (double strand) [PttrB (ttrBCA promoter)]”, which binding is on record?
A: binds
